To fix the notation:
T1: GST-Daple-CT (human, UniProt Q9P219-1 1650-2028)
T1 construct: Daple (CCDC88C), human, C-terminal region; pGEX-4T construct; also called GST-Daple-CT WT; source: E. coli BL21 (DE3), purified (glutathione-Sepharose 4B)
T1 sequence (looked up): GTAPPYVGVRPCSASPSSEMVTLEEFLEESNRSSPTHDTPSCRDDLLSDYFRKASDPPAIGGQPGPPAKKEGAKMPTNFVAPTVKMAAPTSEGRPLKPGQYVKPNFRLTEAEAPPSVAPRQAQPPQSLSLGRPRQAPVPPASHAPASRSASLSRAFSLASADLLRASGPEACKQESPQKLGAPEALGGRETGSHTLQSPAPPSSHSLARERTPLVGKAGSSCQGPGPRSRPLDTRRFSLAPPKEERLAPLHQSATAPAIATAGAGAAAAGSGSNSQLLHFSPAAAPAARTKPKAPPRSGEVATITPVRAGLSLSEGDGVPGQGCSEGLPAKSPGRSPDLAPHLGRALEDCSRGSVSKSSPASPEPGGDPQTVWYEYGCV

B1: His-Gαi3 (natural protein, rat, UniProt P08753 1-354, looked up)
chain: MGCTLSAEDKAAVERSKMIDRNLREDGEKAAKEVKLLLLGAGESGKSTIVKQMKIIHEDGYSEDECKQYKVVVYSNTIQSIIAIIRAMGRLKIDFGEAARADDARQLFVLAGSAEEGVMTSELAGVIKRLWRDGGVQACFSRSREYQLNDSASYYLNDLDRISQTNYIPTQQDVLRTRVKTTGIVETHFTFKELYFKMFDVGGQRSERKKWIHCFEGVTAIIFCVALSDYDLVLAEDEEMNRMHESMKLFDSICNNKWFTDTSIILFLNKKDLFEEKIKRSPLTICYPEYTGSNTYEEAAAYIQCQFEDLNRRKDTKEVYTHFTCATDTKNVQFVFDAVTDVIIKNNLKECGLY
notes: also called His-Gαi3-GDP; recombinant His-Gαi3; source: E. coli BL21 (DE3), purified (HisPur Cobalt Resin)
B2: GST-GIV-CT (aa 1671–1755) (domain or fragment, UniProt Q3V6T2 1671-1755, looked up)
chain: IKTGSPGSEVVTLQQFLEESNKLTSVQIKSSSQENLLDEVMKSLSVSSDFLGKDKPVSCGLARSVSGKTPGDFYDRRTTKPEFLR
notes: GIV (CCDC88A, Girdin), aa 1671–1755, holds the GBA motif; also called GST-GIV CT 1671–1755 aa; source: E. coli BL21 (DE3), purified (glutathione-Sepharose 4B)
B3: His-Daple-CT (aa 1650–2028) (domain or fragment, human, UniProt Q9P219-1 1650-2028, looked up)
chain: T1 sequence (looked up)
notes: Cloned from myc-Daple pcDNA 3.1 into pET28b between NdeI/EcoRI; also called His-Daple-CT WT; Daple-CT-WT; source: E. coli BL21 (DE3), purified (HisPur Cobalt Resin)
B4: GST-Gαi2 (natural protein, rat, UniProt P04897 1-355, looked up)
chain: MGCTVSAEDKAAAERSKMIDKNLREDGEKAAREVKLLLLGAGESGKSTIVKQMKIIHEDGYSEEECRQYRAVVYSNTIQSIMAIVKAMGNLQIDFADPQRADDARQLFALSCAAEEQGMLPEDLSGVIRRLWADHGVQACFGRSREYQLNDSAAYYLNDLERIAQSDYIPTQQDVLRTRVKTTGIVETHFTFKDLHFKMFDVGGQRSERKKWIHCFEGVTAIIFCVALSAYDLVLAEDEEMNRMHESMKLFDSICNNKWFTDTSIILFLNKKDLFEEKITQSPLTICFPEYTGANKYDEAASYIQSKFEDLNKRKDTKEIYTHFTCATDTKNVQFVFDAVTDVIIKNNLKDCGLF
notes: Gαi2, rat, in pGEX-4T-1; also called GST-fused Gαi2; source: E. coli BL21 (DE3), purified (glutathione-Sepharose 4B)
B5: GST-Gαi3 K248M (natural protein, rat, UniProt P08753 1-354, looked up)
chain: B1 chain with K248M
notes: Gαi3, rat, K248M; source: E. coli BL21 (DE3), purified (glutathione-Sepharose 4B)
B6: GST-Gαi3 W258F (natural protein, rat, UniProt P08753 1-354, looked up)
chain: B1 chain with W258F
notes: Gαi3, rat, W258F; source: E. coli BL21 (DE3), purified (glutathione-Sepharose 4B)

In one test the target is T1, GST-Daple-CT. The test can be described thus: pull-down; GST-Daple-CT or GST-GIV-CT immobilised on glutathione-agarose beads; 0.01–3 µM purified His-Gαi3 (GDP-loaded); band intensities of immunoblots fitted to a single-site binding hyperbola; four independent experiments. The conditions noted are these: both partners purified. On the technique in general: In western blotting, separated proteins are transferred to a membrane and probed.

In test [1] the target is B1. The test is described as above. As to conditions: both partners purified.
Test [2] deals with B1. Put plainly: cell-based or functional assay.
A further test has as its target T2, GST-Gαi3 (rat, UniProt P08753 1-354).
T2 construct: Gαi3, rat, in pGEX-4T-1; Loaded with GDP, GDP + AlF4- or GTPγS as the assay says; also called GST-Gαi3 WT; source: E. coli BL21 (DE3), purified (glutathione-Sepharose 4B)
The test can be described thus: pull-down; Gβγ displacement: GST-Gαi3·Gβγ preformed on glutathione-agarose beads (∼0.4 µM GST-Gαi3), 0.05–1 µM His-Daple-CT, 5 hr at 4°C, GDP; bound Gβγ by immunoblot fitted to a single-site competition curve. As to conditions: both partners purified.

Test [3] addresses B3. The test can be described thus: pull-down; GST-Gα protein (5 µg) preloaded with GDP (inactive) on glutathione beads; purified His-Daple-CT (3 µg); 4 hr at 4°C; 50 mM Tris-HCl pH 7.4, 100 mM NaCl, 0.4% NP-40, 10 mM MgCl2, 5 mM EDTA, 30 µM GDP, 2 mM DTT; immunoblot. As to conditions: both partners purified.

Changes are numbered by the printed parent chain. Names and notes keep the numbering of the source.

By Kd is commonly meant a measure of binding affinity in units of concentration. Read a high Kd as a looser complex. By IC50 is commonly meant the midpoint of a concentration-inhibition curve.

In the test with GST-Daple-CT, B1 returned a Kd of 110 nM. That is a sub-micromolar value. Turning to B2, in the test with His-Gαi3 [1], the Kd is 240 nM.

With B3, the “steady-state GTPase activity of His-Gαi3 with 2 µM His-Daple-CT, over the basal activity” value with His-Gαi3 [2] was ~3 fold. This molecule yielded an IC50 with GST-Gαi3 of 160 nM. In the case of B4, the binding result in test [3] is recorded as “binds”. The same measure, in the same setting: for B5 the value was “binds”; for B6, “binds”.

Source of the values: article PMC4484057, “Daple is a novel non-receptor GEF required for trimeric G protein activation in Wnt signaling” (eLife, 2015).
